{
  "source": "paper PMC7463553",
  "about": "“Thiol Redox Regulation of Plant β-Carbonic Anhydrase” (Biomolecules, 2020)",
  "proteins": {"B1": {"name": "β-carbonic anhydrase 1 (βCA1) from Arabidopsis thaliana (enzyme, UniProt P27140 114-347, looked up)", "chain": "ALQTGTSSDKKAFDPVETIKQGFIKFKKEKYETNPALYGELAKGQSPKYMVFACSDSRVCPSHVLDFQPGDAFVVRNIANMVPPFDKVKYGGVGAAIEYAVLHLKVENIVVIGHSACGGIKGLMSFPLDGNNSTDFIEDWVKICLPAKSKVISELGDSAFEDQCGRCEREAVNVSLANLLTYPFVREGLVKGTLALKGGYYDFVKGAFELWGLEFGLSETSSVKDVATILHWKL", "notes": "β-carbonic anhydrase 1 (βCA1, βCA1.1), Arabidopsis thaliana, UniProt P27140, At3g01500; The protein was analysed both reduced (DTT) and oxidised (H2O2); also called βCA1.1; chloroplast βCA; source: E. coli NiCo21 (DE3), purified (passage through a chitin column, Ni-NTA beads, dialysis)"}},
  "target": "the molecule itself",
  "test": "dynamic light scattering; 320 µM βCA1 after addition of 20 mM DTT or in the presence of 500 µM H2O2; 50 mM Na-phosphate pH 8; 25 °C; intensity converted to volume percentage",
  "data": [
    {"protein": "B1", "values": [
      {"measurement": "stoichiometry N", "value": 2}
    ]}
  ]
}
